Experimental data reported in article PMC10720262 (Cell Reports, 2023).

B1: CL-510427 (antibody, V domains shown)
VH: QVQLVESGGGVVQPGRSLRLSCAASGFTFSNYGMHWVRQAPGKGLEWVAVIWYDGSKEDYADSVKGRLTISRDNSKNTLYLQMNSLRAEDTAVYYCARDGDSRGWYAFDYWGQGTLVTVSS
VL: not shown
B2: CL-510514 (antibody, V domains shown)
VH: QVQLVESGGGVVQPGRSLRLSCTTSGFTFSNFGMHWVRQAPGKGLEWVALIWYDGSNKYYADSVKGRFTISRDNSKNTLYLQMNGLRAEDTAVYYCARDGGYYYGSGGAFDIWGQGTMVTVSS
VL: not shown
B3: CL-510458 (antibody, V domains shown)
VH: QVQLVESGGGVVQPGRSLRLSCAASGFTFNNYGMHWVRQAPGKGLEWVAVIWYDGSNKFHADSVKGRFTISRDNSKNTLYLQMNSLRAEDTALYYCARVYYYDSGSYLDYWGQGTLVTVSS
VL: DIQMTQSPSSVSASVGDRVTITCRASQGISRWLAWYQQKPGKAPKLLIYAASSLQSGVPSRFSGSGSGTDFTLTISSLQPEDFATYCCQQANNFPWTFGQGTKVEIK
B4: CL-510632 (antibody, V domains shown)
VH: QVQLVESGGGVVQPGRSLRLSCAASGFTFSNYGMHWVRQAPGKGLEWVAVIWYDGSNKFYADSVKGRFTISRDNSKNTLYLQTNSLRAEDTAVYYCARVYYYDSGNYLDYWGQGTLVAVSS
VL: DIQMTQSPSSVSASVGDRVTITCRASQGINNCLAWYQQKPGKAPKLLIYAASSLQSGVPSRFSGSGSGTDFTLTISNLQPEDFATYCCQQANSFPWTFGQGTKVEIK
B5: CL-510433 (antibody, V domains shown)
VH: QVQLVESGGGVVQPGRSLRLSCVASGFTFSSYGMHWVRQAPGKGLEWVAVIWYDGSNKYYADSVKGRFTVSRDNSKNTLYLQMNSLRAEDTAVYYCARVYYYGSGSYSPYYYALDVWGHGTTVTVSS
VL: EIVMTQSPATLSVSPGERATLSCRASQSISSNLAWYQQKPGQAPRLLIYGASIRATGIPARFSGSGSGTEFTLSISILQSEDFAIYYCQQYNNWWTFGQGTKVEIK
B6: CL-511073 (antibody, V domains shown)
VH: QVQLVESGGGVVQPGRSLRLSCAASGFSFSSHGMHWVRQAPGKGLEWVSIIWYDGSNKFYADSVKGRFTISRDNSKNTLYLQMNSLRAEDTAVYYCARDGYDVLTGHYNWFDPWGQGTLVTVSS
VL: EIVMTQSPATLSVSPGERATLSCRASQSVSSKLAWYQQKPGQAPRLLIYGASTRATGIPARFSGSGSGTDFTLTISSLQSEDFAVYYCQQYNNWWTFGHGTKVEIK
B7: CL-509993 (antibody, V domains shown)
VH: QVQLVESGGGVVQPGRSLRLSCVASGFTFSNNGMHWVRQAPGKGLEWVAIIWYDGSNKYYADSVKGRFTISRDNSNNTLYLQMNSLRAEDTAVYYCARDRMFGSGTWNYFDPWGQGTLVTVSS
VL: EIVLTQSPATLSLSPGERATLSCRASQSVTTYLAWYQQKPGQAPRLLIYDASNRATGIPARFSGSGSGTDFTLTISSLEPEDFAVYYCQQRSNWWTFGQGTKVEIK
B8: CL-510082 (antibody, V domains shown)
VH: QVQLVESGGGVVQPGKSLRLSCVASGFTFSNNGMHWIRQAPGKGLEWVAIIWYDGSNKFYADSVKGRFTISRDNSHNTLYLQMNSLRAEDTAVYYCARDRMFGSGTWNYFDPWGQGTLVTVSS
VL: EIVLTQSPATLSLSPGERATLSCRASQSVSTYLAWYQQKPGQAPRLLIYDASNRATGIPARFSGSGSGTDFTLTISSLEPEDFAVYYCQQRSYWWTFGQGTKVEIK
B9: CL-510469 (antibody, V domains shown)
VH: QVQLVESGGGVVQPGRSLRLSCAASGFTFSSYGMHWVRQAPGKGLEWVAVIWYDGSNQFYTDSVKGRFTISRDNSKNTLYLHMNSLRVEDTAIYYCARDGDYSSSAGDFDYWGQGTLVTVSS
VL: not shown
B10: CL-510484 (antibody, V domains shown)
VH: QVQLVESGGGVVQPGRSLRLSCAASGFTFSNYGMNWVRQAPGKGLEWMAVIWYDGSNKYYGDSVKGRFTISRDNSKNTLYLQMISLRAEDTAVYFCAKSGEFYGSGSHFDYWGQGTLVTVSS
VL: not shown
B11: CL-510596 (antibody, V domains shown)
VH: QVQLEESGGGVVQPGRSLRLSCTATGFTFSNYGMHWVRQAPGKGLEWVAVIWYDGSNKYYVDSVKGRFTISRDNSKNTLYLQMNSLRAEDTAVYYCARDGGYYGSGSYWWFDSWGQGTLVTVSS
VL: not shown
B12: CL-510499 (antibody, V domains shown)
VH: QVQLVESGGGLVQPGRSLTLSCAASGFTFSNYGMHWVRQTPGKGLEWVALIRYDGSYKFYADSVKGRFTISRDNSKNTLYLQMNSLRAEDTAIYFCARDGDYSNSAGDFDYWGQGTLVTVSS
VL: EIVLTQSPGTLSLSPGERATLSCRASQSVSSTNLAWYQQKPGQAPRLLIYGVSSRATGIPDRFSGSGSGTDFTLTINRLEPEDFAVYYCQQHGRSFTFGPGTKVEIK
B13: CL-510020 (antibody, V domains shown)
VH: QVQLVESGGGVVQPGRSLRLSCAASGFTFSSFGMYWVRQAPGKGLEWVALIWYDGSNQYYADSVKGRFTISRDNSKNTLYLQMNSLRAEDTAVYYCARAGYFYGSGSPLDYWGQGTLVTVPS
VL: DIQMTQSPSTLSASVGDGVTITCRASQSISSWLAWYQQKPGKAPKLLIYMASSLESGVPSRFSGSGSGTEFTLTISSLQPDDFATYYCQQYYNYWTFGQGTKVEIK
B14: CL-510092 (antibody, V domains shown)
VH: QVQLVESGGGVVQPGTSLRLSCAASGFTFSNFGMYWVRQAPGKGLEWVALIWYDGSNKFYEDSVKGRFTISRDNSKNTLYLQMNSLRAEDTAVYYCAKDGGYSGPGKYGFFRHWGQGSLVTVSS
VL: DIQLTQSPSTLSASVGDRVTITCRASQSISNWLAWYQQKPGKAPKLLIYKASSLESGVPSRFSGNGSGTEFTLTISSLQPDDFATYYCHQYNFYWTFGQGTKVEIK
B15: CL-510416 (antibody, V domains shown)
VH: QVQLVESGGGVVQPGRSLRLSCEASGFTFSNYGMHWVRQGPGKGLEWVALMWYDGSNKYYSDSVKGRFTISRDNSKSTLYLQMNSLRAEDTAVYYCARPITGNTHSKYTMDVWGQGTTVTVSS
VL: DIQMTQSPSTLSASVGDRVTITCRASQSISSWLAWYQQKPGKAPKLLIYKASTLESGVPSRFSGSGSGTEFTLTISSLQPDDFATYFCQQYNSYWTFGQGTKVEIK
B16: CL-510453 (antibody, V domains shown)
VH: QVQLVESGGGVVQPGRSLRLSCAASGFTFSSYGMHWVRQAPDKGLEWVAIIWYDGSKKYYADSVKGRFTVSRDNSKNTLYLQMNSLRAEDTAVFYCARSFDYESGGFYSFDYWGQGTLVSVSS
VL: DIQMTQSPSTLSASVGDRVTITCRASQSISSWLAWYQQKPGKAPKLLIYRASSLASGVPSRFSGSGSGTEFTLTISSLQPDDFATYYCQQYNSYWTFGQGTKVEFK
B17: CL-511296 (antibody, V domains shown)
VH: QVQLVASGGGVVQPGRSQRLSCAASGFTFSNYGMHWVRQSPGRGLEWVAIIWYDGSNKFYADSVKGRFTISRDNSRNTLFLQMNSLRAEDTAIYYCAKSEERTSDNYFKYGMDVWGQGTTVIVST
VL: DIQMTQSPSTLSASVGDRVTITCRASQSISSWLAWYQQKPGKAPKLLIYKASNLESGVPSRFSGSGSGTEFTLSISNLQPDDFATYFCQQYTSYWTFGQGTKVEIK
B18: CL-510373 (antibody, V domains shown)
VH: QVQLVESGGGVVQPGRSLKLSCAASGFTFSSYGMHWVRQAPGRGLEWVSIIWYDGSNKFYSDSVQGRFTISRDDSKNTLYLQMNSLRAEDTAMYYCAMVANYTISSGAFDIWGHGTMVTVSS
VL: DIQMTQSPSTLSASVGDRVTITCRASQSISNWLAWYQQKSGKAPKLLIYKASSLESGVPSRFSGSGSGTEFTLTISSLQPDDFATYFCQQYKTYWTFGQGTKVEIK
B19: CL-510418 (antibody, V domains shown)
VH: QVQLVESGGGVVQPGQSLRLSCEASGFTFSNYGMHWVRQAPVKGLEWVAIIWFDGSYKYYADSVKGRFTVSRDNSKNTLYLQMDSLRAEDTAVYYCARARKGQRSDYYGSETSYTFDNWGQGTLVTVSS
VL: DIQMTQSPSTLSASVGDRVTITCRASQSINSWLAWYQQKPGKAPKFLIYKASILESGIPSRFSGSGSGTEFTLTISSLQPDDFATYYCQQYNSYWTFGQGTKVEIK
B20: CL-510640 (antibody, V domains shown)
VH: QVQLVESGGGVVQPGRSLRLSCAASGFTFSNYGMHWVRQAPVKGLEWVAIIWYDGSNKFYADSVRGRFIISRDNSKNTLYLQMNSLRAEDTAVYFCARAREGQNSDYYGSETSYTFDSWGLGTLVTVSS
VL: DIQMTQSPSTLSASVGDRVTITCRASQSISSWLAWYQQKPGKAPKFLIYKASSLESGVPSRFSGSGSGTEFTLTISSLQPDDFATYYCQQYKSYWTFGQGTKVEIK
B21: CL-510700 (antibody, V domains shown)
VH: QVQLVESGGGVVQPGRSLRLSCAASGFTFSDFGMHWVRQTPGKGLEWVAIIWYDGSNKFYADSVKGRFTISRDNSKNTLFLQMNSLRAEDTAVYYCARSGVYYGSGSHFDYWGQGTLVTVSS
VL: DIQMTQSPSTLSASVGDRVTITCRASQSISSWLAWYQLKPGKAPKLLIYKASNLETGVPLRFSGSGSGTEFTLTISSLQPDDFATYYCQQYNSYLTFGQGTKVEIK
B22: CL-510487 (antibody, V domains shown)
VH: QVQLEESGGGVVQPGRSLRLSCTATGFTFSNYGMHWVRQAPGRGLEWVGVIWYDGSNKFYVDSVKGRFTISRDNSKNTLYLQMNSLRAEDTAVYYCARDGGYYGSGSYWWFDSWGQGTLVTVSS
VL: DIQMTQSPSTLSASVGDRVTITCRASQSISSWLAWYQQKPGKAPKLLIYKASSLERGVPSRFSGSGSGTEFTLTISSLQPDDFATYYCQQYNRYCSFGQGTKLEIK
B23: CL-511026 (antibody, V domains shown)
VH: QVQLVESGGGVVQPGRSLRLSCAASGFTFSNFGMHWVRQAPDRGLEWVSIIWYDGSNKFYADSVKGRFTISRDNSKNTLFLQMDSLRAEDTAVYYCAKAEMRTSDYYNYGMDVWGQGTTVTVSS
VL: DIQMTQSPSTLSASVGDRVTITCRASQSISSWLAWYQQKPGKAPKLLIYKASSLESGVPSRFSGSGSATEFTLTIRSLQPDDFATYYCQQYYSYWTFGQGTKVEIN
B24: CL-511771 (antibody, V domains shown)
VH: QVQLVESGGGVVQPGRSLRLSCAASGFTFSNSGMHWVRQAPGKGLEWVAIIWYDGSNKYYAESMKGRFTISRDNSKNTLYLQMNSLRAEDTAVYYCARDGTTNAFDLWGQGTMVTVSP
VL: not shown

Target: recombinant full-length PfCSP (Plasmodium falciparum circumsporozoite protein, strain NF54) (Plasmodium falciparum NF54, UniProt P19597)
Sequence (P19597 20-375): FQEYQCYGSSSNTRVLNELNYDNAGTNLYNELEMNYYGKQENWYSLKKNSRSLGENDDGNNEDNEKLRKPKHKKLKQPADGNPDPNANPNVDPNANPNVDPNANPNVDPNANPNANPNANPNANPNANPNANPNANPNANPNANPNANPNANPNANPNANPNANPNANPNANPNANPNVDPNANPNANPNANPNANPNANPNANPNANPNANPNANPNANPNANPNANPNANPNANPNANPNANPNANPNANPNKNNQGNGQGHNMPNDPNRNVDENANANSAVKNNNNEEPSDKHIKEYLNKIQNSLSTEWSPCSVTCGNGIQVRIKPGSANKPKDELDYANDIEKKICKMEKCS

Does B1 bind?
Result: binds

Does B2 bind?
Result: binds

Does B3 bind?
Result: binds

Does B4 bind?
Result: binds

Does B5 bind?
Result: binds

Does B6 bind?
Result: binds

Does B7 bind?
Result: binds

Does B8 bind?
Result: binds

Does B9 bind?
Result: binds

Does B10 bind?
Result: binds

Does B11 bind?
Result: binds

Does B12 bind?
Result: binds

Does B13 bind?
Result: binds

Does B14 bind?
Result: binds

Does B15 bind?
Result: binds

Does B16 bind?
Result: binds

Does B17 bind?
Result: binds

Does B18 bind?
Result: binds

Does B19 bind?
Result: binds

Does B20 bind?
Result: binds

Does B21 bind?
Result: binds

Does B22 bind?
Result: binds

Does B23 bind?
Result: binds

Does B24 bind?
Result: binds
